Test results: article PMC8390535

Molecular target: sfGFP-POX10 (superfolder green fluorescent protein POX10 fusion protein)
Experiment: SPR

With “PXDN-con4 (human recombinant peroxidasin consisting of the four immunoglobulin domains and the peroxidase domain) (domain or fragment)” the Kd was 74 nM.
